Among the data in patent US20180224449A1 are Fluorescence (RFU) values, retold here.

The labels stand for the following.
B1: OPP1 peptide-quantum dot conjugate (peptide)
peptide: PRIRKSH
modifications: also: conjugated to quantum dot
B2: OBP9 peptide-quantum dot conjugate (peptide)
peptide: QMLLRLP
modifications: conjugated to a quantum dot (QD525)
B3: OBP4 peptide-quantum dot conjugate (peptide)
peptide: RRSNSQL
modifications: conjugated to a quantum dot (QD525)
B4: OBP7 peptide-quantum dot conjugate (peptide)
peptide: QITLRST
modifications: conjugated to a quantum dot (QD525)
B5: OBP6 peptide-quantum dot conjugate (peptide)
peptide: NMTNPPP
modifications: conjugated to a quantum dot (QD525)
B6: OPP3 peptide-quantum dot conjugate (peptide)
peptide: LPSTIHR
modifications: conjugated to a quantum dot (QD525)
B7: OPP5 peptide-quantum dot conjugate (peptide)
peptide: IITMKRR
modifications: conjugated to a quantum dot (QD525)
B8: OPP2 peptide-quantum dot conjugate (peptide)
peptide: MHNLNLL
modifications: conjugated to a quantum dot (QD525)
B9: OPP4 peptide-quantum dot conjugate (peptide)
peptide: LRPLMNR
modifications: conjugated to a quantum dot (QD525)
B10: OPP6 peptide-quantum dot conjugate (peptide)
peptide: RKKSRIR
modifications: conjugated to a quantum dot (QD525)

Ends that are not written are not given here.

The first assay addresses Opr86 outer membrane protein on A. venetianus cells (A. venetianus). Put plainly: fluorometry of cells recovered from spiked 1 L Jet A fuel and labeled with 1.5 uM peptide-QD545, at the LOD of 5 x 10^5 CFU.
As for B1, the Fluorescence (RFU) was 773 RFU.

For the next assay, the target named is Opr86 outer membrane protein on P. stutzeri cells (P. stutzeri). Described as above.
B1 displayed a Fluorescence (RFU) of 820 RFU.

A further assay has as its target OprF outer membrane protein on P. stutzeri cells (P. stutzeri). Put plainly: fluorometry at 525 nm of 1x10^9 P. stutzeri cells labeled with peptide-QD525 conjugate.
B2: the Fluorescence (RFU) turned out to be 3340 RFU.
As for B3, the Fluorescence (RFU) was found to be 4520 RFU.
B4 returned a Fluorescence (RFU) of 2620 RFU.
Same read-out and setting: in the case of B5 it was 2080 RFU.

The next assay has as its target Opr86 outer membrane protein on P. stutzeri cells (P. stutzeri). Described as above.
Molecule B6 yielded a Fluorescence (RFU) of 2250 RFU.
Regarding B7, the Fluorescence (RFU) amounted to 4410 RFU.
Still for that read-out and setting: in the case of B8 it was 1850 RFU; in that of B1, 12300 RFU.
Same read-out and setting: the value for B9 was 1380 RFU; that for B10 was 4130 RFU.
